Numbering of substitutions follows the chain as printed.
Legend:
[1] = target: T1, recombinant human MerTK extracellular domain (human, UniProt Q12866 21-505); experiment: SPR Carterra LSA, Ab immobilised
T1 construct: also called human MerTK ECD; not shown: polyHis or TEVS/Thrombin/murine IgG2a-Fc tag
T1 sequence: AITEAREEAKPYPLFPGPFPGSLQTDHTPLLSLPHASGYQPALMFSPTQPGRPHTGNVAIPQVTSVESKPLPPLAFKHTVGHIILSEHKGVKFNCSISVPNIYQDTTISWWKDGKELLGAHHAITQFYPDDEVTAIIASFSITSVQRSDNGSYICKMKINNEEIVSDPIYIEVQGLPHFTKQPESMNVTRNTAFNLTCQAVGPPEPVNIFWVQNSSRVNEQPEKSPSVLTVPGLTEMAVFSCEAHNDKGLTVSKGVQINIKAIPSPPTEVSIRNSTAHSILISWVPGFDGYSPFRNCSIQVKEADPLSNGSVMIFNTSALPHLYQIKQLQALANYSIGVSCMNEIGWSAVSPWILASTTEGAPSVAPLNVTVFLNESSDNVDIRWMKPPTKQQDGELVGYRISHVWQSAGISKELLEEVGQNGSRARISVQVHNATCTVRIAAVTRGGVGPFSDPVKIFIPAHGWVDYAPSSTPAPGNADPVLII
Method: Binding kinetics of anti-MerTK IgG1 antibodies of the present disclosure to human, cyno, and murine MerTK were evaluated using a Carterra LSA instrument (Carterra, Salt Lake City, UT). […] A HC200M sensor chip (Carterra) was activated using the single channel flow cell with a 7-minute injection of a 1:1:1 mixture of 100 mM MES pH 5.5, 100 mM sulfo-NHS, 400 mM EDC (all reconstituted in MES pH 5.5; 100 μl of each mixed in vial immediately before running assay). After switching to the multi-channel array flow cell, the antibodies were injected over the activated chip in three 96-spot arrays for 10 minutes each. The remaining unconjugated active groups on the chip were then blocked by injecting 1M Ethanolamine pH 8.5 (Carterra) for 7 minutes using the single channel flow cell. The resulting sensor chip contained three spots for each antibody, at three different densities. Two independent experiments were performed as follows, resulting in an N of between one and six determinations for each antibody. Spots that yielded less than 25 RU of analyte binding were excluded from further analysis.
After priming with running buffer (HBS-TE, Carterra) with 0.5 mg/ml BSA (Sigma), the immobilized anti-MerTK antibodies were tested for their ability to bind to several forms of recombinant MerTK extracellular domain, including human, cynomolgus, and mouse orthologs as described above. Estimates of affinity were generated by injecting each analyte over the entire antibody array using the single channel flow cell. MerTK analytes were diluted with running buffer, in a series of six, three-fold serial dilutions starting from 1 μM for human and cynomolgus MerTK, and 600 nM for mouse MerTK. Analytes were injected for 5 minutes, and dissociation was followed for 10 minutes. After each analyte injection, antibodies were regenerated with either Protein A/G Elution Buffer (Thermo) with 1M NaCl (Teknova), or with 10 mM Glycine pH 2.5. Three buffer blanks were run between each series (one species per series). Data were processed and analyzed using NextGenKIT high-throughput kinetics analysis software (Carterra).

human MerTK = target: T2, human MerTK (human, UniProt Q12866 21-999); experiment: FACS, SK-MEL-5 cells, 10 ug/ml
T2 construct: endogenous receptor on cells; also called human MerTK endogenously expressed on SK-MEL-5 cells; MerTK on human macrophages
T2 sequence: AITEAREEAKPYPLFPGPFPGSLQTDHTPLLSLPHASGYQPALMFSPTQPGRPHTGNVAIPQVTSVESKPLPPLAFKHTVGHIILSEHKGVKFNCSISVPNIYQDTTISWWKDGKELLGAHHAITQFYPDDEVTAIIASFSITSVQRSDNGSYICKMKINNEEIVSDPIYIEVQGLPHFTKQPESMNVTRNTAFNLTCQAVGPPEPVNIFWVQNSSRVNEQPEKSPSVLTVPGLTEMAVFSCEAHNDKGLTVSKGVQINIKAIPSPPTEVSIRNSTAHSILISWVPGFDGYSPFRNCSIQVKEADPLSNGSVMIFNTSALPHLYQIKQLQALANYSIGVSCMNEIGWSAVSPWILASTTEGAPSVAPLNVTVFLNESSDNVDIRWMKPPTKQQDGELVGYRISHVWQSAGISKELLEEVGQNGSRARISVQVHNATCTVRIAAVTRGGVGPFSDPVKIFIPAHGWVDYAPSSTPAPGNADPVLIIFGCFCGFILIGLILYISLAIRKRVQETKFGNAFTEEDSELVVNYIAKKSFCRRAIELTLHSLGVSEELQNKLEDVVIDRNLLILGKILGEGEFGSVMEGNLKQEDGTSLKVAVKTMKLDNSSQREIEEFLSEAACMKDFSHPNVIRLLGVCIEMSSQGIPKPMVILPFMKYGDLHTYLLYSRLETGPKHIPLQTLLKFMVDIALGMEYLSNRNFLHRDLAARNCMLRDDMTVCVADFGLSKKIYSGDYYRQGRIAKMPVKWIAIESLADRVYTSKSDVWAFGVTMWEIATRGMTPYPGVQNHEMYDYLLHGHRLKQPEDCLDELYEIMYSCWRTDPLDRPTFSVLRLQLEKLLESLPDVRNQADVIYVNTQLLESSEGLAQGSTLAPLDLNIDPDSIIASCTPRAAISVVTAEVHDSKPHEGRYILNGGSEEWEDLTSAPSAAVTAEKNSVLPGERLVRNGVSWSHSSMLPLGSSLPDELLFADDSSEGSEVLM
Method: To determine whether recombinant anti-human MerTK antibodies of the present disclosure bind to human MerTK endogenously expressed on SK-MEL-5 cells and CHO cells overexpressing mouse MerTK (CHO-muMerTK OE cells), as compared to A375 and parental CHO cells as negative controls, the following experiments were performed. SK-MEL-5 cells, A375 cells, CHO-muMerTK OE cells, and CHO parental cells were plated at 100,000 cells/well. Anti-MerTK antibodies were added to the cells at 10 μg/ml. After 60 minutes on ice, cells were washed and then stained with PE-conjugated goat anti-human IgG antibody (Southern Biotech Cat #2040-09, Birmingham, AL) in the presence of Fc block solution on ice for 30 minutes, and then washed twice with cold FACS buffer (2% FBS in PBS). Mouse anti-human MerTK-PE conjugated (Biolegend, Clone 590H11G1E3) or anti-mouse MerTK-PE conjugated (ThermoFisher, Clone DS5MMER) antibodies were used as positive controls. Stained cells were acquired on a BD FACS Canto II cytometer and the mean fluorescence intensity (MFI) was calculated with FlowJo.

B1: MTK-211 (antibody, human IgG1, V domains shown)
VH: QVQLQQSGAELMKPGASVKLSCKATGYTFTGYWIEWVKQRPGHGLEWIGEILPGSGGSNYNEKFKGKATFTADTSSNTAYIQLSSLTTEDSAIYCCARGEPSYFSDAGFAYWGQGTLVTVSA
VL: QIVLTQSPAVMSASPGEKVTMTCSASSSITYMHWYQQKPGTSPKRWIYDTSKLASGVPARFSGSGSGTSYFLTISSMEAEDVATYYCHQRSTYPYTFGGGTKLEIM
B1 gave a Kd [1] of 1.3 nM and an MFI (human MerTK) of 30500 MFI.

B2: MTK-201 (antibody, human IgG1, V domains shown)
VH: QVQLRQSGPGLVQPSQSLSITCTVSGFSLSNYGLHWVRQSPGKGLEWLGVIWSGGITDYNAAFISRLSIIKDNSRSQVFFKMNSLQADDTAIYYCARKGHDPYAMDFWGQGTSVTVSS
VL: QIVLTQSPPIMSAFLGERVTMTCTASSSVSSSYLHWYRQMPGSSPKLWIYDTSNLASGVPARFSGSGSGTSYSLTISSMEAEDAATYYCHQYHHSPYTFGGGTKLEIK
Binder B2 has an MFI (human MerTK) of 40300 MFI.

B3: MTK-227 (antibody, human IgG1, V domains shown)
VH: EVKLVESGGGLVQPGGSLSLSCAASGFTFTDNYMTWVRQPPGKALEWLGFSRNKANGYTTEYSASVKGRFTISRDSSQSILYLQMNALRAEDSGTYYCARFPPHYYAGGYFDVWGTGTTVTVSS
VL: DIQMTQSPASLSASVGETVTITCRASENIYSYLAWYQQKQGKSPQLLVYNAKTLAEGVPSRFSGSGSGTQFSLKINSLQPADFGSYYCQHYYRTPPTFGGGTKLEIK
B3 gave a Kd [1] of 99 nM and an MFI (human MerTK) of 40900 MFI.

B4: MTK-213 (antibody, human IgG1, V domains shown)
VH: QVQLQQPGAELVKPGASVKMSCKASGYTFTSYWITWVKQRPGQGHEWIGEIYPGIGSTNYNEKFKSKATLTVDTSSRTAYMQLSSLTSEDSAVYFCARGAYTKYYFDYWGQGTTLTVSS
VL: DIVMTQSHKFMSTSVGDRVSITCKASQDVGDAVAWYQQKPGQTPKLLIYWASTRHTGVPDRFTGSGSGTDFTLTISNVQSEDLADYFCQQYSSYLMYTFGGGTKLEIK
Binder B4 has a Kd [1] of 64 nM and an MFI (human MerTK) of 40300 MFI.

B5: MTK-223 (antibody, human IgG1, V domains shown)
VH: DVQLQESGPGLVKPSQSLSLTCSVTGYSITSGYYWNWIRQFPGNKLEWMGYISYDGTNNYNPSLKNRISITRDTSENQFFLKLNSVTTEDTATYFCVRGAGYWGQGTTLTVSS
VL: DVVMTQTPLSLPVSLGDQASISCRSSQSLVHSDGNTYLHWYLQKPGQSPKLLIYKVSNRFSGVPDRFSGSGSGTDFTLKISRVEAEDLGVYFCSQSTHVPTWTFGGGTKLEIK
In the case of B5, the Kd [1] is reported as 75 nM and the MFI (human MerTK) is reported as 26800 MFI.

B6: MTK-219 (antibody, human IgG1, V domains shown)
VH: QVQLQQSGADLMKPGASVKLSCKATGNTFTGYWIEWVKQRPGHGLEWIGEILTGSGSTNYNERFKGKATFTADTSSNTAYMQLSSLTTEDSAIYYCAGSYFTNSWFPYWGQGSLVTVSA
VL: DIVLTQSPASLAVSLGQRATISCRASESVDSYGNSFMHWYQQKPGQPPKLLIYRAYTLESGIPARFSGSGSRTDFTLTINPVEADDVATYYCQQSNEDPRTFGGGTKLEIK
Work on B6 yielded a Kd [1] of 440 nM and an MFI (human MerTK) of 26800 MFI.

B7: MTK-222 (antibody, human IgG1, V domains shown)
VH: B6 VH with N27Y, T58S, R63K, T74S, Y80F, F101Y, T102S
VL: B6 VL with A9V, N34S, Y56S, T57S, A84T
B7 showed a Kd [1] of 130 nM and an MFI (human MerTK) of 27500 MFI.

B8: MTK-229 (antibody, human IgG1, V domains shown)
VH: QVQLQQSGPELVKPGASVKISCKASGYEFSRSWMNWVKQRPGKGLEWIGRIYPGDGDTNYKGKLKGQATLTADKSSSTAYMQLSSLTFEDSAVYFCARGGGYYYDSRYEGFVYWGQGTVVTVSA
VL: QIVLTQSPAIMSASPGEEVTMTCSASSSVSYMHWYQQKSGTSPKRWIYDTSKLASGVSGRFSGSGSGTSYSLTISSMEAEDAATYYCQQWSSNPPITFGAGTKLELK
B8 was tested, and the Kd [1] was 18 nM and the MFI (human MerTK) was 32200 MFI.

B9: MTK-212 (antibody, human IgG1, V domains shown)
VH: QVQLQQSGPELVKPGASVKISCKASGYAFSSSWVNWVKQRPGKGLEWIGRIYPGDGDSNYNGNFKGKATLTADKSSNTAYLQLSSLTSEDSAVYFCARKSHFIYYTLDYWGQGTPVTVSS
VL: DIVMTQSHKFKSTSVGDRVSIACKASQDVGTSVAWYQQKPGKSPKLLIYWASSRHTGVPDRFTGSGSGTDFTLTISNVQSEDLTDYFCQQYSTYPYTFGGGTKLEIK
With B9 the Kd [1] was 82 nM and the MFI (human MerTK) was 8080 MFI.

B10: MTK-220 (antibody, V domains shown)
VH: EVQLVESGGGLVKPGGSLKLSCAASGFTFSDYGMHWVRQAPEKGLEWVAFISGGSGTIYYEDTVKGRFTISRDNAKNTLFLQMTSLRSEDTAMYYCTRGGNYFDYWGQGTTLTVSS
VL: NIMLTQSPSSLAVSAGEKVTMTCKSSQSVLYSSNQKNYLAWYQQKPGQSPKLLIYWASTRESGVPDRFTGSGSGTDFTLTISNVQAEDLAVYYCHQYFSSWTFGGGTKLEIK
Binder B10 has a Kd [1] of 150 nM and an MFI (human MerTK) of 29000 MFI.

B11: MTK-228 (antibody, human IgG1, V domains shown)
VH: QDQLQQSGPELVKPGASVKISCKASGYSFTSYYIHWVKQRPGQGLEWVGWIFPGNGNTKYNERFKGKATLTADTSSSTAYMQLSSLTSEDSAVYYCARLGLIYALDYWGQGTSVTVSS
VL: DAVMTQTPLSLPVSLGDQASISCRSSQSLENSNGNTYLHWYLQKPGQSPQLLIYRVSNRFSGVLDRFSGSGSGTDFTLKISRVEAEDLGVYFCLQVTHVPFTFGSGTKLEIK
B11 showed a Kd [1] of 42 nM and an MFI (human MerTK) of 60200 MFI.

B12: MTK-226 (antibody, human IgG1, V domains shown)
VH: B11 VH with D2V, V48I, R63N, K65R
VL: B11 VL with N31S, K79Q
B12 showed a Kd [1] of 39 nM and an MFI (human MerTK) of 49100 MFI.

B13: MTK-218 (antibody, human IgG1, V domains shown)
VH: B11 VH with D2V, A16T, E46D, V48I, G56R, K59Q, R63K
VL: B11 VL with N35H, L64Q
B13 was tested, and the Kd [1] was 64 nM and the MFI (human MerTK) was 49000 MFI.

B14: MTK-210 (antibody, human IgG1, V domains shown)
VH: QVQLQQSGPELVKPGASVKISCKASDYEFSRSWMNWVKQRPGKGLEWIGRIYPGDGDTNYNGKFKGKATLTADKSSNTAYMQLNSLTSEDSAVYFCARKGGYYYSISNYFDYWGQGTTLTVSS
VL: QIVLTQSPAIMSASPGVKVTMTCSASSSVSYMHWYQQKPGSSPRLLIYDTSNLASGVPVRFSGSGSGTSYSLTISRMEAEDAATYYCQQWSSYPPYTFGGGTKLEIK
In the case of B14, the Kd [1] is reported as 31 nM and the MFI (human MerTK) is reported as 29900 MFI.

Reference: patent US20240294650A1 (Alector, published 2024)
